The values below come from the Immune Epitope Database (IEDB).

The target of one experiment is HLA-C*12:03. As to the kind of experiment: IEDB peptide-MHC binding, purified MHC/direct/fluorescence; filed as Kd, often an IC50 or EC50 that approximates it; ≥ and ≤ were set here for values at or beyond the usual limits of such assays.
Experiment [1] has as its target HLA-A*02:01. As to the kind of experiment: IEDB peptide-MHC binding, purified MHC/competitive/fluorescence; filed as Kd, often an IC50 or EC50 that approximates it; ≥ and ≤ were set here for values at or beyond the usual limits of such assays.
Another experiment addresses HLA-B*39:01. The description is as above.
Experiment [2] concerns the target HLA-B*15:01. The experiment is described as above.
The target of another experiment is HLA-A*03:01. As to the kind of experiment: IEDB peptide-MHC binding, purified MHC/direct/fluorescence; filed as Kd, often an IC50 or EC50 that approximates it; ≥ and ≤ were set here for values at or beyond the usual limits of such assays.
Experiment [3] addresses HLA-A*02:01. Described as above. The note with it: source organism: Mycobacterium tuberculosis.
Experiment [4] deals with HLA-B*46:01. The description is as above. The note with it: source organism: Mycobacterium tuberculosis.
Experiment [5] addresses HLA-B*57:01. The experiment is described as above. The note with it: source organism: Mycobacterium tuberculosis.
Another experiment addresses HLA-B*27:05. The experiment is described as above. The note with it: source organism: Mycobacterium tuberculosis.
The target of the next experiment is HLA-B*58:01. The description is as above. The note with it: source organism: Mycobacterium tuberculosis.
Another experiment has as its target HLA-B*08:02. The description is as above. To be noted: source organism: Mycobacterium tuberculosis str. Haarlem.
Another experiment has as its target HLA-B*40:01. The experiment is described as above. The note with it: source organism: Mycobacterium tuberculosis.
In experiment [6] the target is HLA-B*18:01. Described as above. The note with it: source organism: Mycobacterium tuberculosis.
The target of experiment [7] is HLA-A*69:01. The experiment is described as above. The note with it: source organism: Mycobacterium tuberculosis.
A further experiment concerns the target HLA-A*11:01. The experiment is described as above. The note with it: source organism: Mycobacterium tuberculosis.
A further experiment has as its target HLA-A*01:01. The description is as above. The note with it: source organism: Mycobacterium tuberculosis.
The target in a further experiment is HLA-A*31:01. The experiment is described as above. To be noted: source organism: Mycobacterium tuberculosis.
Experiment [8] concerns the target HLA-B*51:01. The experiment is described as above.
In the next experiment the target is HLA-B*08:01. The description is as above. To be noted: source organism: Mycobacterium tuberculosis str. Haarlem.
Another experiment deals with HLA-B*48:01. The experiment is described as above. The note with it: source organism: Mycobacterium tuberculosis.
For a further experiment, the target named is HLA-B*83:01. As to the kind of experiment: IEDB peptide-MHC binding, purified MHC/competitive/fluorescence; filed as Kd, often an IC50 or EC50 that approximates it; ≥ and ≤ were set here for values at or beyond the usual limits of such assays. To be noted: source organism: Mycobacterium tuberculosis C.
The target in the next experiment is HLA-B*15:42. The experiment is described as above. The note with it: source organism: Mycobacterium tuberculosis C.
In another experiment the target is HLA-B*45:06. The experiment is described as above. The note with it: source organism: Mycobacterium tuberculosis C.
For another experiment, the target named is HLA-A*30:01. The description is as above. The note with it: source organism: Mycobacterium tuberculosis C.
The target in the next experiment is HLA-A*02:16. As to the kind of experiment: IEDB peptide-MHC binding, purified MHC/direct/fluorescence; filed as Kd, often an IC50 or EC50 that approximates it; ≥ and ≤ were set here for values at or beyond the usual limits of such assays.
For another experiment, the target named is HLA-A*02:19. The experiment is described as above.
The target of another experiment is HLA-A*29:02. The experiment is described as above. To be noted: source organism: Choclo virus.
Another experiment deals with HLA-A*26:01. The experiment is described as above. To be noted: source organism: Hantavirus Monongahela-3.
The target in the next experiment is HLA-A*24:03. The description is as above.
Experiment [9] concerns the target HLA-A*02:12. Described as above.
In a further experiment the target is HLA-B*27:03. As to the kind of experiment: IEDB peptide-MHC binding, purified MHC/competitive/fluorescence; filed as Kd, often an IC50 or EC50 that approximates it; ≥ and ≤ were set here for values at or beyond the usual limits of such assays.
The target in experiment [10] is HLA-B*46:01. The description is as above.
The target in experiment [11] is HLA-B*57:01. Described as above.
For a further experiment, the target named is HLA-B*15:17. Described as above.
For experiment [12], the target named is HLA-B*18:01. The experiment is described as above.
The target of experiment [13] is HLA-A*69:01. Described as above.
Experiment [14] has as its target HLA-B*51:01. The description is as above.
Another experiment has as its target HLA-A*02:03. As to the kind of experiment: IEDB peptide-MHC binding, purified MHC/direct/fluorescence; filed as Kd, often an IC50 or EC50 that approximates it; ≥ and ≤ were set here for values at or beyond the usual limits of such assays. The note with it: source organism: Araucaria virus.
The target of a further experiment is HLA-A*02:11. The experiment is described as above. To be noted: source organism: Araucaria virus.
The target of the next experiment is HLA-A*68:02. The experiment is described as above. To be noted: source organism: Araucaria virus.
Experiment [15] addresses HLA-B*15:01. Described as above. To be noted: source organism: Itapua hantavirus.
Experiment [16] has as its target HLA-A*02:12. As to the kind of experiment: IEDB peptide-MHC binding, purified MHC/competitive/fluorescence; filed as Kd, often an IC50 or EC50 that approximates it; ≥ and ≤ were set here for values at or beyond the usual limits of such assays. To be noted: source organism: Shigella dysenteriae Sd197.
[17] abbreviates: source organism: Salmonella enterica subsp. enterica serovar Typhi.
The mark [18] stands for this setting: source organism: Mycobacterium tuberculosis.
The mark [19] stands for this setting: source organism: West Nile virus.
Where [20] appears, read: source organism: New York virus.
Where [21] appears, read: source organism: Araucaria virus.
[22] abbreviates: source organism: Vibrio vulnificus CMCP6.

Turning to FSLENVRLM, the equilibrium dissociation constant (Kd) with HLA-C*12:03 (source organism: Leishmania panamensis) worked out at 0.772 µM.

On to TQFAGVVTV, for which the dissociation constant Kd with HLA-C*12:03 (source organism: Salmonella enterica subsp. enterica serovar Typhi str. CT18) was found to be 0.003 µM; with HLA-A*02:01 [1] (setting [17]) it was 0.0005 µM; in the experiment with HLA-B*39:01 (setting [17]), 0.0017 µM; in the experiment with HLA-B*15:01 [2] (setting [17]) it was 0.212 µM.

Sequence YLQQNTHTL came in with a dissociation constant Kd with HLA-C*12:03 (source organism: Homo sapiens) of 0.09 µM.

For the sequence APRARTAAF, the Kd with HLA-A*03:01 (setting [18]), with HLA-A*02:01 [3], with HLA-B*46:01 [4], in the experiment with HLA-B*57:01 [5], with HLA-B*27:05 and in the experiment with HLA-B*58:01 was at least 20 µM throughout. For the same sequence, the dissociation constant Kd in the experiment with HLA-B*08:02 is 0.23 µM; with HLA-B*40:01 it was at least 20 µM; in the experiment with HLA-B*18:01 [6], 12.3 µM; with HLA-A*69:01 [7] it was at least 20 µM; in the experiment with HLA-A*11:01, at least 20 µM; in the experiment with HLA-A*01:01, at least 20 µM. Further, the Kd with HLA-A*31:01 was at least 20 µM; with HLA-B*51:01 [8] (setting [18]) it was at least 20 µM; with HLA-B*08:01, 0.005 µM; with HLA-B*48:01, at least 20 µM; in the experiment with HLA-B*83:01, 0.0526 µM; with HLA-B*15:42, at least 5 µM. Further, the figures for the Kd in the experiment with HLA-B*45:06, with HLA-A*30:01 and with HLA-B*15:01 [2] (source organism: Mycobacterium tuberculosis C) were at least 5 µM, at least 20 µM and at least 20 µM, respectively.

Turning to RVYSDHQAL, the Kd with HLA-C*12:03 (setting [19]) is 0.65 µM; with HLA-B*51:01 [8] (setting [19]) it was at least 20 µM.

For FVKDWMDRI, the Kd in the experiment with HLA-A*02:16 (source organism: Choclo virus) is at least 20 µM; with HLA-A*03:01 (source organism: Choclo virus) it was at least 20 µM; with HLA-A*02:19 (source organism: Choclo virus) it was at least 20 µM; in the experiment with HLA-A*29:02, at least 20 µM; in the experiment with HLA-A*26:01, 0.0656 µM; with HLA-A*24:03 (source organism: Choclo virus), at least 20 µM. Also, the Kd with HLA-A*02:12 [9] (source organism: Choclo virus), with HLA-B*27:03 (setting [20]), in the experiment with HLA-A*02:01 [1] (setting [20]), in the experiment with HLA-B*46:01 [10] (setting [20]), with HLA-B*57:01 [11] (setting [20]) and with HLA-B*15:17 (setting [20]) was at least 20 µM throughout. Also, the Kd with HLA-B*18:01 [12] (setting [20]), with HLA-A*69:01 [13] (setting [20]), with HLA-B*39:01 (setting [20]) and with HLA-B*51:01 [14] (setting [20]) was at least 20 µM each time.

Take AFMATNKAY: the dissociation constant Kd with HLA-A*02:16 (setting [21]), with HLA-A*03:01 (setting [21]), with HLA-A*02:03, in the experiment with HLA-A*02:19 (setting [21]), with HLA-A*24:03 (setting [21]) and with HLA-A*02:11 was at least 20 µM each time. The equilibrium dissociation constant (Kd) was at least 20 µM with HLA-A*68:02; at least 20 µM with HLA-A*02:12 [9] (setting [21]); 0.0944 µM with HLA-B*15:01 [15]; at least 20 µM with HLA-B*27:03 (setting [21]); at least 20 µM in the experiment with HLA-A*02:01 [1] (setting [21]); at least 20 µM with HLA-B*46:01 [10] (setting [21]). Also, the Kd in the experiment with HLA-B*57:01 [11] (setting [21]), in the experiment with HLA-B*15:17 (setting [21]), with HLA-B*18:01 [12] (setting [21]), with HLA-A*69:01 [13] (setting [21]), in the experiment with HLA-B*39:01 (setting [21]) and with HLA-B*51:01 [14] (setting [21]) was at least 20 µM throughout.

Turning to SVFSRPLPL, the equilibrium dissociation constant (Kd) with HLA-A*02:01 [1] (source organism: Shigella dysenteriae Sd197) was at most 0.0001 µM; with HLA-A*02:12 [16], 0.184 µM.

For the sequence FAFHTVFHI, the equilibrium dissociation constant (Kd) with HLA-C*12:03 (setting [22]) is at most 0.001 µM; with HLA-B*51:01 [14] (setting [22]), 0.0429 µM.
